Results published in US20210388087A1 (Chugai, published 2021).
Positions count from the first letter of the chain named. Blank lines part the entries; values can stand above or below the binder they belong to.

Target: T1, CD3 epsilon homodimer protein (UniProt P07766 23-126)
T1 construct: also called CD3 (CD3 epsilon)
Test: SPR Biacore T200, CD3e homodimer on chip, vs unaltered GLS3000 antibody

T1 sequence (P07766 23-126): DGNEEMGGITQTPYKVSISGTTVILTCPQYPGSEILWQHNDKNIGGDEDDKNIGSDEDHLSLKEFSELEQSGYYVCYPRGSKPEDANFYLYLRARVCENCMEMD

ratio of amounts bound (Z=Y/X): 0.95
B1: GLS3000 S56P (antibody, name in Kabat numbering, V domains shown)
VH: QVQLVESGGGVVQPGRSLRLSCAASGFTFSNAWMHWVRQAPGKGLEWVAQIKAKSNNYATYYAESVKGRFTISRDDSKNSLYLQMNSLKTEDTAVYYCRYVHYGAYYGVDAWGQGTTVTVSS
VL: DIVMTQSPLSLPVTPGEPASISCRSSQSLVHSNRNTYLHWYQQKPGQAPRLLIYKVSNRFPGVPDRFSGSGSGTDFTLKISRVEAEDVGVYYCGQGTQVPYTFGQGTKLEIK
notes: one-arm IgG as m2

ratio of amounts bound (Z=Y/X): 0.61
B2: GLS3000 V27cE (antibody, name in Kabat numbering, V domains shown)
VH: B1 VH
VL: B1 VL with V30E, P61S
notes: one-arm IgG as m2

ratio of amounts bound (Z=Y/X): 0.18
B3: GLS3000 T92D (antibody, name in Kabat numbering, V domains shown)
VH: B1 VH
VL: B1 VL with P61S, T97D
notes: one-arm IgG as m2

ratio of amounts bound (Z=Y/X): 0.42
B4: GLS3000 T92L (antibody, name in Kabat numbering, V domains shown)
VH: B1 VH
VL: B1 VL with P61S, T97L
notes: one-arm IgG as m2

ratio of amounts bound (Z=Y/X): 0.84
B5: GLS3000 V27cL (antibody, name in Kabat numbering, V domains shown)
VH: B1 VH
VL: B1 VL with V30L, P61S
notes: one-arm IgG as m2

ratio of amounts bound (Z=Y/X): 0.44
B6: GLS3000 V94M (antibody, name in Kabat numbering, V domains shown)
VH: B1 VH
VL: B1 VL with P61S, V99M
notes: one-arm IgG as m2

ratio of amounts bound (Z=Y/X): 1.26
B7: GLS3000 V94P (antibody, name in Kabat numbering, V domains shown)
VH: B1 VH
VL: B1 VL with P61S, V99P
notes: one-arm IgG as m2

ratio of amounts bound (Z=Y/X): 0.77
B8: GLS3000 V27cY (antibody, name in Kabat numbering, V domains shown)
VH: B1 VH
VL: B1 VL with V30Y, P61S
notes: one-arm IgG as m2

ratio of amounts bound (Z=Y/X): 0.51
B9: GLS3000 V27cS (antibody, name in Kabat numbering, V domains shown)
VH: B1 VH
VL: B1 VL with V30S, P61S
notes: one-arm IgG as m2

ratio of amounts bound (Z=Y/X): 0.95
B10: GLS3000 S56V (antibody, name in Kabat numbering, V domains shown)
VH: B1 VH
VL: B1 VL with P61V
notes: one-arm IgG as m2

ratio of amounts bound (Z=Y/X): 1.05
B11: GLS3000 V94A (antibody, name in Kabat numbering, V domains shown)
VH: B1 VH
VL: B1 VL with P61S, V99A
notes: one-arm IgG as m2

ratio of amounts bound (Z=Y/X): 1.05
B12: GLS3000 V94N (antibody, name in Kabat numbering, V domains shown)
VH: B1 VH
VL: B1 VL with P61S, V99N
notes: one-arm IgG as m2

ratio of amounts bound (Z=Y/X): 0.3
B13: GLS3000 V27cP (antibody, name in Kabat numbering, V domains shown)
VH: B1 VH
VL: B1 VL with V30P, P61S
notes: one-arm IgG as m2

ratio of amounts bound (Z=Y/X): 0.84
B14: GLS3000 V51G (antibody, name in Kabat numbering, V domains shown)
VH: B1 VH
VL: B1 VL with V56G, P61S
notes: one-arm IgG as m2

ratio of amounts bound (Z=Y/X): 0.32
B15: GLS3000 T31N (antibody, name in Kabat numbering, V domains shown)
VH: B1 VH
VL: B1 VL with T36N, P61S
notes: one-arm IgG as m2

ratio of amounts bound (Z=Y/X): 1.04
B16: GLS3000 T31K (antibody, name in Kabat numbering, V domains shown)
VH: B1 VH
VL: B1 VL with T36K, P61S
notes: one-arm IgG as m2

ratio of amounts bound (Z=Y/X): 0.33
B17: GLS3000 T92Y (antibody, name in Kabat numbering, V domains shown)
VH: B1 VH
VL: B1 VL with P61S, T97Y
notes: one-arm IgG as m2

ratio of amounts bound (Z=Y/X): 0.96
B18: GLS3000 V27cI (antibody, name in Kabat numbering, V domains shown)
VH: B1 VH
VL: B1 VL with V30I, P61S
notes: one-arm IgG as m2

ratio of amounts bound (Z=Y/X): 0.71
B19: GLS3000 V94F (antibody, name in Kabat numbering, V domains shown)
VH: B1 VH
VL: B1 VL with P61S, V99F
notes: one-arm IgG as m2

ratio of amounts bound (Z=Y/X): 1.36
B20: GLS3000 S56R (antibody, name in Kabat numbering, V domains shown)
VH: B1 VH
VL: B1 VL with P61R
notes: one-arm IgG as m2

ratio of amounts bound (Z=Y/X): 1.38
B21: GLS3000 S56W (antibody, name in Kabat numbering, V domains shown)
VH: B1 VH
VL: B1 VL with P61W
notes: one-arm IgG as m2

ratio of amounts bound (Z=Y/X): 0.49
B22: GLS3000 T31E (antibody, name in Kabat numbering, V domains shown)
VH: B1 VH
VL: B1 VL with T36E, P61S
notes: one-arm IgG as m2

ratio of amounts bound (Z=Y/X): 0.23
B23: GLS3000 T31D (antibody, name in Kabat numbering, V domains shown)
VH: B1 VH
VL: B1 VL with T36D, P61S
notes: one-arm IgG as m2

ratio of amounts bound (Z=Y/X): 0.64
B24: GLS3000 V51E (antibody, name in Kabat numbering, V domains shown)
VH: B1 VH
VL: B1 VL with V56E, P61S
notes: one-arm IgG as m2

ratio of amounts bound (Z=Y/X): 0.32
B25: GLS3000 V51P (antibody, name in Kabat numbering, V domains shown)
VH: B1 VH
VL: B1 VL with V56P, P61S
notes: one-arm IgG as m2

ratio of amounts bound (Z=Y/X): 0.89
B26: GLS3000 V94D (antibody, name in Kabat numbering, V domains shown)
VH: B1 VH
VL: B1 VL with P61S, V99D
notes: one-arm IgG as m2

ratio of amounts bound (Z=Y/X): 0.78
B27: GLS3000 V94H (antibody, name in Kabat numbering, V domains shown)
VH: B1 VH
VL: B1 VL with P61S, V99H
notes: one-arm IgG as m2

ratio of amounts bound (Z=Y/X): 0.32
B28: GLS3000 V27cD (antibody, name in Kabat numbering, V domains shown)
VH: B1 VH
VL: B1 VL with V30D, P61S
notes: one-arm IgG as m2

ratio of amounts bound (Z=Y/X): 0.81
B29: GLS3000 V51I (antibody, name in Kabat numbering, V domains shown)
VH: B1 VH
VL: B1 VL with V56I, P61S
notes: one-arm IgG as m2

ratio of amounts bound (Z=Y/X): 0.96
B30: GLS3000 T92S (antibody, name in Kabat numbering, V domains shown)
VH: B1 VH
VL: B1 VL with P61S, T97S
notes: one-arm IgG as m2

ratio of amounts bound (Z=Y/X): 0.17
B31: GLS3000 T92E (antibody, name in Kabat numbering, V domains shown)
VH: B1 VH
VL: B1 VL with P61S, T97E
notes: one-arm IgG as m2

ratio of amounts bound (Z=Y/X): 0.63
B32: GLS3000 T92A (antibody, name in Kabat numbering, V domains shown)
VH: B1 VH
VL: B1 VL with P61S, T97A
notes: one-arm IgG as m2

ratio of amounts bound (Z=Y/X): 1.46
B33: GLS3000 S56Y (antibody, name in Kabat numbering, V domains shown)
VH: B1 VH
VL: B1 VL with P61Y
notes: one-arm IgG as m2

ratio of amounts bound (Z=Y/X): 0.66
B34: GLS3000 V94I (antibody, name in Kabat numbering, V domains shown)
VH: B1 VH
VL: B1 VL with P61S, V99I
notes: one-arm IgG as m2

ratio of amounts bound (Z=Y/X): 0.44
B35: GLS3000 V94L (antibody, name in Kabat numbering, V domains shown)
VH: B1 VH
VL: B1 VL with P61S, V99L
notes: one-arm IgG as m2

ratio of amounts bound (Z=Y/X): 1.04
B36: GLS3000 S56Q (antibody, name in Kabat numbering, V domains shown)
VH: B1 VH
VL: B1 VL with P61Q
notes: one-arm IgG as m2

ratio of amounts bound (Z=Y/X): 0.97
B37: GLS3000 S56T (antibody, name in Kabat numbering, V domains shown)
VH: B1 VH
VL: B1 VL with P61T
notes: one-arm IgG as m2

ratio of amounts bound (Z=Y/X): 0.97
B38: GLS3000 T31I (antibody, name in Kabat numbering, V domains shown)
VH: B1 VH
VL: B1 VL with T36I, P61S
notes: one-arm IgG as m2

ratio of amounts bound (Z=Y/X): 0.26
B39: GLS3000 T92P (antibody, name in Kabat numbering, V domains shown)
VH: B1 VH
VL: B1 VL with P61S, T97P
notes: one-arm IgG as m2

ratio of amounts bound (Z=Y/X): 0.5
B40: GLS3000 V94E (antibody, name in Kabat numbering, V domains shown)
VH: B1 VH
VL: B1 VL with P61S, V99E
notes: one-arm IgG as m2

ratio of amounts bound (Z=Y/X): 0.33
B41: GLS3000 V51D (antibody, name in Kabat numbering, V domains shown)
VH: B1 VH
VL: B1 VL with V56D, P61S
notes: one-arm IgG as m2

ratio of amounts bound (Z=Y/X): 0.31
B42: GLS3000 T31P (antibody, name in Kabat numbering, V domains shown)
VH: B1 VH
VL: B1 VL with T36P, P61S
notes: one-arm IgG as m2

ratio of amounts bound (Z=Y/X): 0.48
B43: GLS3000 V94G (antibody, name in Kabat numbering, V domains shown)
VH: B1 VH
VL: B1 VL with P61S, V99G
notes: one-arm IgG as m2

ratio of amounts bound (Z=Y/X): 0.57
B44: GLS3000 V94K (antibody, name in Kabat numbering, V domains shown)
VH: B1 VH
VL: B1 VL with P61S, V99K
notes: one-arm IgG as m2

ratio of amounts bound (Z=Y/X): 0.31
B45: GLS3000 T97P (antibody, name in Kabat numbering, V domains shown)
VH: B1 VH
VL: B1 VL with P61S, T102P
notes: one-arm IgG as m2

ratio of amounts bound (Z=Y/X): 0.34
B46: GLS3000 T92I (antibody, name in Kabat numbering, V domains shown)
VH: B1 VH
VL: B1 VL with P61S, T97I
notes: one-arm IgG as m2
